Laboratory results: patent publication US20240337665A1 (INDI MOLECULAR, published 2024)
Bridge positions count the residues as written; N and C are the ends. Square brackets hold non-standard residues; d marks the D form. Ends that are not written are not given here. I, II: the chains in the order shown. Lys(N3) = [N-]=[N+]=NCCCC[C@H](N)C(=O)O; Pra = C#CC[C@H](N)C(=O)O

Legend:
[1] = molecular target: T1, Plasmodium falciparum Histidine Rich Protein-2 (Plasmodium falciparum); assay: assay not described; monoligand Cy(YKYYR)
T1 construct: the construct used in the assay is not described; also called Pf.HRP-2
T1 chain: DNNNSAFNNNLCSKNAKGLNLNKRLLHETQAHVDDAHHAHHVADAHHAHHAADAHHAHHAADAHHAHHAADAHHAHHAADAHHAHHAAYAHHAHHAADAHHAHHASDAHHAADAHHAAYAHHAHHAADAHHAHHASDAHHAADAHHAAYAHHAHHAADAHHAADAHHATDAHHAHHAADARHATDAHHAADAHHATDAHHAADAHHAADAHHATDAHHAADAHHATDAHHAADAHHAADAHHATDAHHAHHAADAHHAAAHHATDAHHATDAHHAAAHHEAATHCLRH

[2] = molecular target: T2, Full-length His-tagged IL-17F protein (ab167911, Abcam) (human, UniProt Q96PD4 31-163); assay: sandwich ELISA; biotinylated macrocycle on NeutrAvidin plate, His-tagged IL-17F titrated
T2 construct: Bought protein, called full-length and His-tagged; also called human IL-17F protein; recombinant human IL-17F protein; not shown: His tag
T2 sequence: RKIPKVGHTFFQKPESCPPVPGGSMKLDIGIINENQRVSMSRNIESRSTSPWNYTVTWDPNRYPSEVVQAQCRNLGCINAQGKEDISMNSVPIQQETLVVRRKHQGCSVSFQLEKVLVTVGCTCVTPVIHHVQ

[3] = molecular target: T2, Full-length His-tagged IL-17F protein …; assay: point ELISA; macrocycle on NeutrAvidin plate, His-tagged IL-17F against His-tagged IL-17A at 100 nM
[4] = molecular target: T1, Plasmodium falciparum Histidine Rich …; assay: assay not described
[5] = molecular target: T1, Plasmodium falciparum Histidine Rich …; assay: assay not described; biligand cy(YKYYR)-linker-cy(GWNVDL)
[6] = molecular target: T2, Full-length His-tagged IL-17F protein …; assay: not stated in the sentence (same number as the ELISA EC50 of paragraph 504); monoligand Cy(RSYNKX1X2), not the biligand
[7] = molecular target: T2, Full-length His-tagged IL-17F protein …; assay: fluorescence polarization in solution; IL-17F titrated against 5-FITC-tagged macrocycle; 5-FITC-tagged LF2, fluorescence polarization in solution
[8] = molecular target: T1, Plasmodium falciparum Histidine Rich …; assay: assay not described; monoligand cy(GWNVDL)
[9] = molecular target: T1, Plasmodium falciparum Histidine Rich …; assay: assay not described; two Cy(YKYYR) PCCs joined by about a 1.5 nm linker
[10] = molecular target: T3, His6-PEG3-FFQKPESSPPVPGGS (human, not fully specified (N-terminus); printed as His6-PEG3-FFQKPESSPPVPGGS); assay: point ELISA; macrocycle on NeutrAvidin plate, 2 µM His-tagged epitope
T3 construct: Not clear whether the listing entry holds the His6
T3 peptide: FFQKPESSPPVPGGS

[11] = molecular target: T4, His6-PEG3-FFQKPESSPVSPGPG (not fully specified (N-terminus); printed as His6-PEG3-FFQKPESSPVSPGPG); assay: as above
T4 construct: Synthetic; residues C-terminal to C48S scrambled
T4 peptide: FFQKPESSPVSPGPG

[12] = molecular target: T2, Full-length His-tagged IL-17F protein …; assay: point ELISA; surface-immobilized macrocycle with IL-17F, IL-17A or no protein
[13] = molecular target: T5, His6-PEG3-SQFEKFPSPPVPGGS (not fully specified (N-terminus); printed as His6-PEG3-SQFEKFPSPPVPGGS); assay: point ELISA; macrocycle on NeutrAvidin plate, His-tagged epitope, anti-His-AP detection
T5 construct: Synthetic; residues N-terminal to C48S scrambled
T5 peptide: SQFEKFPSPPVPGGS

[14] = molecular target: T2, Full-length His-tagged IL-17F protein …; assay: point ELISA; macrocycle on NeutrAvidin plate, His-tagged IL-17F against His-tagged IL-17A
[15] = molecular target: T2, Full-length His-tagged IL-17F protein …; assay: sandwich ELISA; biotinylated macrocycle on NeutrAvidin plate, His-tagged IL-17F titrated, anti-His-AP detection
[16] = molecular target: T2, Full-length His-tagged IL-17F protein …; assay: fluorescence polarization in solution; IL-17F titrated against 5-FITC-tagged macrocycle; 5-FITC-tagged LF1, fluorescence polarization in solution
[17] = molecular target: T2, Full-length His-tagged IL-17F protein …; assay: point ELISA; recombinant human IL-17F against IL-17A
[18] = molecular target: T2, Full-length His-tagged IL-17F protein …; assay: binding to His-tagged IL-17F human recombinant protein
[19] = molecular target: T2, Full-length His-tagged IL-17F protein …; assay: fluorescence polarization in solution; in solution by fluorescence polarization
[20] = molecular target: T2, Full-length His-tagged IL-17F protein …; assay: binding to His-tagged IL-17F human recombinant protein (ELISA format); PEG3-linked biligand; binding to His-tagged IL-17F, not in solution
[21] = molecular target: T2, Full-length His-tagged IL-17F protein …; assay: binding to His-tagged IL-17F human recombinant protein (ELISA format); reference: the individual PCC macrocycles Cy(RRATSX1X2) and Cy(RSYNKX1X2)

**Q.** For YKYYR (also: cyclic, ring type not given here, also called cyclic YKYYR) [Cy(YKYYR)], which EC50 [1] is on record?
**A.** 220 nM

B1: Biotin-PEG3-Cy(KKGWPX1X2) (peptide)
peptide: KKGWP[Lys(N3)][Pra]
modifications: triazole 6-7; not fully specified (N-terminus, bridges); printed as Biotin-PEG3-Cy(KKGWPX1X2); also: no peptide bond X6-X7, Pra is the true N-terminus, Az4 the true C-terminus, Biotin-PEG3 label at N-terminus (on Pra)
**Q.** With B1 as the binder, how does the EC50 [2] read?
**A.** 24 nM

**Q.** What about the “selectivity for IL-17F over IL-17A” value [3] of the same binder?
**A.** 4 ratio IL-17F:IL-17A

B2: cy(YKYYR)-linker-cy(GWNVDL) (designed binder)
peptide 1: YKYYR
peptide 2: GWNVDL
modifications: not fully specified (bridges); printed as cy(YKYYR)-linker-cy(GWNVDL)
notes: also called The resultant biligand
**Q.** For B2, which “fold improvement over the better of the two ligand components” value [4] is on record?
**A.** 100 fold

**Q.** What about the EC50 [5] of the same binder?
**A.** 0.54 nM

B3: Biotin-PEG3-Cy(RSYNKX1X2) (peptide)
peptide: RSYNK[Lys(N3)][Pra]
modifications: triazole 6-7; not fully specified (N-terminus, bridges); printed as Biotin-PEG3-Cy(RSYNKX1X2); also: no peptide bond X6-X7, Pra is the true N-terminus, Az4 the true C-terminus, Biotin-PEG3 label at N-terminus (on Pra)
notes: also called LF2
**Q.** Which results are given for B3?
**A.** EC50 [2]: 15 nM; selectivity for IL-17F over IL-17A [3]: 4 ratio IL-17F:IL-17A; Kd [6]: 15 nM; Kd [7]: 28 nM

**Q.** With GWNVDL (not fully specified (bridges); also: cyclic, ring closure not given here, also called cy(GWNVDL)) [cyclic PCC with variable sequence GWNVDL] as the binder, how does the EC50 [8] read?
**A.** 50 nM

B4: linked biligand of two Cy(YKYYR) PCCs (designed binder)
peptide: YKYYR
modifications: not fully specified (bridges)
notes: also called The resultant linked biligand
**Q.** How did the EC50 [9] turn out when B4 was run?
**A.** 20.8 nM

B5: Cy(RRATSX1X2)-PEG3-biotin (peptide)
peptide: RRATS[Lys(N3)][Pra]
modifications: triazole 6-7; not fully specified (C-terminus, bridges); printed as Cy(RRATSX1X2)-PEG3-biotin; also: no peptide bond X6-X7, Pra is the true N-terminus, Az4 the true C-terminus, PEG3-biotin label at C-terminus (on Az4)
notes: Biotin-PEG3 form used on NeutrAvidin plates; also called LF1
**Q.** Does B5 bind [10]?
**A.** binds

**Q.** Does B5 bind [11]?
**A.** binds

**Q.** What about the “selectivity for IL-17F over IL-17A” value [12] of the same binder?
**A.** 10 ratio IL-17F:IL-17A

**Q.** Does B5 bind [13]?
**A.** no binding (tested: 2 µM epitope)

**Q.** What about the “selectivity for IL-17F over IL-17A” value [14] of the same binder?
**A.** 2 ratio IL-17F:IL-17A

**Q.** What about the EC50 [15] of the same binder?
**A.** 66 nM

**Q.** What about the Kd [16] of the same binder?
**A.** 50 nM

B6: Cy(RRAQSX1X2)-PEG3-biotin (peptide)
peptide: RRAQS[Lys(N3)][Pra]
modifications: triazole 6-7; not fully specified (C-terminus, bridges); printed as Cy(RRAQSX1X2)-PEG3-biotin; also: no peptide bond X6-X7, Pra is the true N-terminus, Az4 the true C-terminus, PEG3-biotin label at C-terminus (on Az4)
**Q.** What does the source list for B6?
**A.** binding result [10]: binds; binding result [11]: binds; binding result [13]: no binding (tested: 2 µM epitope); selectivity for IL-17F over IL-17A [14]: 2 ratio IL-17F:IL-17A; EC50 [15]: 52 nM

B7: Biotin-PEG3-Cy(RSYNKX1X2)-PEG3-Cy(RRATSX1X2) (designed binder)
peptide 1: RSYNK[Lys(N3)][Pra]
peptide 2: RRATS[Lys(N3)][Pra]
modifications: triazole I:6-I:7, II:6-II:7; not fully specified (N-terminus, C-terminus); printed as Biotin-PEG3-Cy(RSYNKX1X2)-PEG3-Cy(RRATSX1X2); also: chain 1 joined to chain 2 through one PEG3 linker, backbone orders Pra-RSYNK-Az4 and Pra-RRATS-Az4, no bonds X6-X7
notes: One covalent molecule: two macrocyclic peptides joined by a single PEGylated amino acid (not a peptide linker), written here as two peptide segments; also called Bi-LF; anti-IL-17F biligand with PEG3 linker
**Q.** How did the “selectivity for IL-17F over IL-17A” value [17] turn out when B7 was run?
**A.** 4 ratio IL-17F:IL-17A

**Q.** And the “fold better binder than the biligands with other linkers” value [18]?
**A.** ~10 fold

**Q.** What about the “times stronger than the other biligands” value [18] of the same binder?
**A.** ≥ 16 fold

**Q.** What about the Kd [19] of the same binder?
**A.** 0.252 nM

**Q.** What about the Kd [20] of the same binder?
**A.** 0.246 nM

**Q.** And the “fold improvement in affinity relative to the individual PCC macrocyclic ligands” value [21]?
**A.** > 100 fold
